Among the targets are csk21_rat Csnk2a1 (UniProt P19139); csk2b_human CSNK2B (UniProt P67870); csk21_human CSNK2A1 (UniProt P68400).
A further assay deals with T1, gga3_human GGA3 (UniProt Q9NZ52).
T1 sequence: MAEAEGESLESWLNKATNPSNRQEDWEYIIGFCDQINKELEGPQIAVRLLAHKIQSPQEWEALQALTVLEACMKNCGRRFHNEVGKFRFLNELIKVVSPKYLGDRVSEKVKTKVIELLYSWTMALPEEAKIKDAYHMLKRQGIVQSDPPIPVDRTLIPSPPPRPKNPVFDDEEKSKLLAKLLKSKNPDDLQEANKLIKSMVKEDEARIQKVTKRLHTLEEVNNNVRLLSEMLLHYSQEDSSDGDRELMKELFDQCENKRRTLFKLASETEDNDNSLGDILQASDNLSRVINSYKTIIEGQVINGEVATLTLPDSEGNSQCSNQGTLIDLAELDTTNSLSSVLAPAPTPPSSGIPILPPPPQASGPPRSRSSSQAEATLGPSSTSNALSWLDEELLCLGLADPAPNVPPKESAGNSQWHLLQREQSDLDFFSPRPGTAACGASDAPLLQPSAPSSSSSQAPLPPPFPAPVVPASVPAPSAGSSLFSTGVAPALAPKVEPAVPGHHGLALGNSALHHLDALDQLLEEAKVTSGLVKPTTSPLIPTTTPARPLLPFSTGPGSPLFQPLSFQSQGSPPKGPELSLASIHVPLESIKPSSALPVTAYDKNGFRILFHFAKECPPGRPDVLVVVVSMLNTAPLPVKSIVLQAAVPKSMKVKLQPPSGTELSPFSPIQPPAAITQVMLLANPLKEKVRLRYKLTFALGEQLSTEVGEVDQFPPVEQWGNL

Sequence of csk21_human CSNK2A1 (P68400 whole entry, looked up): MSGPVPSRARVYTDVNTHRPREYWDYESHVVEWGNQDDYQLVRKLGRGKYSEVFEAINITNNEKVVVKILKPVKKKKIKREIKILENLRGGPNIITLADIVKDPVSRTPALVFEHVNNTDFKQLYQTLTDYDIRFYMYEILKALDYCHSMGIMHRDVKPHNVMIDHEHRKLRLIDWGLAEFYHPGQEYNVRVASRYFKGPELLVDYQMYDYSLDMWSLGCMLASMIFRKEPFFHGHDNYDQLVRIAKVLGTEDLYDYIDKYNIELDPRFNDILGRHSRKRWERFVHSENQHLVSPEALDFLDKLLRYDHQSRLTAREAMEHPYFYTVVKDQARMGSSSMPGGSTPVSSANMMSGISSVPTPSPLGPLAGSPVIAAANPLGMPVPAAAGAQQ
Sequence of csk2b_human CSNK2B (P67870 whole entry): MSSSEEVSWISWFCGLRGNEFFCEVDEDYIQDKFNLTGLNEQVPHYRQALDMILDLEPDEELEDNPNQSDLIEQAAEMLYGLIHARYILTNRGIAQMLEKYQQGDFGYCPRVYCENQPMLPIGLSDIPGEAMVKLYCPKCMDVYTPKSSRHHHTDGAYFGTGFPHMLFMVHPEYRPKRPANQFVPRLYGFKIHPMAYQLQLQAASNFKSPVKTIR
Sequence of csk21_rat Csnk2a1 (P19139 whole entry, looked up): as the sequence (P68400 whole entry, looked up) above, with G335S, S337A, S338G, P340A, P378S, M381I counted along it

As to “Phosphofurin acidic cluster sorting protein 1 (Homo sapiens) (from UniProt Q6VY07) R196A;R197A;K198A;R199A;Y200A”, the “effect of a mutation on the interaction” value was “disrupting interaction strength” with csk21_rat Csnk2a1, “disrupting interaction” in the assay with csk2b_human CSNK2B and “disrupting interaction” with csk21_human CSNK2A1. On to “Phosphofurin acidic cluster sorting protein 1 (Homo sapiens) (from UniProt Q6VY07) K249W”, for which the “effect of a mutation on the interaction” value in the assay with gga3_human GGA3 is listed as “disrupting interaction”. Same read-out and setting: for “Phosphofurin acidic cluster sorting protein 1 (Homo sapiens) (from UniProt Q6VY07) Y251A” the value was “disrupting interaction”.

The record behind these values is IntAct's records for PubMed 16977309.
